Several values for one entry are separate records, joined by “and”; a condition that tells them apart may be missing. Equal values may be shown once. Entries after “also recorded” stand apart in the source; their conditions may differ.
Tests used:
[1] = test system: female Wistar rats; conditions: rat, in vivo
[2] = test system: female Wistar rats; assay: Isotype specific (IgG1, IgG2b) antibody response against IFN-β by ELISA; type: in vivo, rat
Experimental: Isotype specific antibody responses against IFN-β were determined at weeks 2 and 24 post-injection using an ELISA Quantification Kit, commercially available from Bethyl Laboratories (Bethyl Inc., Montgomery, Tex.). A 96 well microtiter plate (Nunc Maxi-sorb plate) was coated with 1 μg/mL of IFN antigen and incubated overnight at 4° C. (to generate a standard curve wells were coated with 1 μL of capture antibody to 100 μL coating buffer); plates were washed with 50 mM Tris buffered saline, pH 8.0, 0.05% Tween (Sigma #T9039); 200 μL of Post Coat/Block solution (50 mM Tris buffered saline, pH 8.0, 1% BSA; Sigma #T6789) was added per well and incubated covered for 30 minutes at room temperature. Standards were prepared according to the package insert using the Sample/Conjugate Diluent (0.5 mL of 10% Tween 20; Sigma # P7949) per 100 mL of PostCoat/Block Solution; sample dilutions were made using the Sample/Conjugate Diluent; 100 μL of standard or sample was transferred to assigned wells and incubated for 1 hour at room temperature; conjugate was prepared according to package insert (1:20,000 for IgG1 and 1:40,000 for IgG2b); 100 μL of the conjugate was added per well and incubated for 1 hour at room temperature; 100 μL of TMB per well was added and incubated at room temperature for 30 minutes; 200 μL of 0.5 M H2SO4 per well was added to stop the reaction; plates were read at 450 nm.
(§1) Blood samples were collected once a week.

[3] = test system: female Wistar rats; assay: Histological evaluation of injection site following IM and ID administration of interferon-beta; type: in vivo, rat
Text: Sample Preparation: For ID injection, the skin was removed from each injection site and placed on a small card. The excised skin was approximately lcm in diameter with the needle insertion point in the center. The center of the injection was marked with black tattoo ink at time of injection to help identify the needle insertion point. Samples were placed in individual containers with 10% formalin for fixation. For IM injection, the needle insertion point was marked with black tattoo ink at the time of injection. The skin was carefully lifted and the muscle surface directly below the needle insertion point was marked with black tattoo ink. The hamstring muscle was collected and placed on a small card. Samples were placed in individual containers with 10% formalin for fixation. […]
Sample Identification: Samples are identified by the following system. In animals 801, 803, 804, 806, 807, 808, 809 and 810 intramuscular injections were made to the hamstring muscle of female Wistar rats. In animals 811, 812, 813, 814, 815, 816, 817, 818, 819 and 820 intradermal injections (approximately 1 mm deep) were made to the lateral dorsum of female Wistar rats.
Specimen Preparation: A single section was taken from each sample. Tissue was blocked to a size appropriate for sectioning. The section was taken through the needle insertion track. Sections were H&E stained and evaluated. If evidence of irritation was observed, further sections were taken to determine the extent of the irritation. Samples were graded on a multi-parameter irritancy scale. Histological alterations were graded on the following 5-grade scale: • Grade 0: Normal/Absent/None • Grade 1: Minimal/Cell Degeneration • Grade 2: Mild/Cell Necrosis • Grade 3: Moderate/Focal Erosion • Grade 4: Marked/Massive/Generalized Erosion • Present: Finding present/Severity not scored
In addition to the grading scale, descriptions of changes and findings were documented. Measurements were taken of the Width and Depth of any site irritation as well as skin thickness. Representative photos were taken of each condition.
Study Design: Rat interferon beta (Cell Sciences Inc. (Canton, Mass.)) was administered IM or ID in phosphate buffered saline using methods described supra. The animals were divided according to the following scheme:
Intramuscular Group—Day 1: The hair on the back and on the back of the rear leg was clipped. Injection was performed using a BD 30 G×0.5″ needle to the hamstring muscle. 50 μL was injected. The center of the injection was marked with black tattoo ink to help aid in injection track identification. Rats were returned to their cages for recovery.
Intramuscular Group—Day 2 (24 hrs. post-injection): Rats were euthanized by CO2 asphxiation and the skin from rear leg was removed. The muscle directly below the needle insertion point on the skin was marked with black tattoo ink. The hamstring muscle was excised, placed on small card and stored in 10% formalin solution.
Intradermal group-Day 1 The hair on the lateral dorsum was closely clipped. and injection was performed using a 1 mm BD microneedle. 50 μL was injected The center of the injection was marked with black tattoo ink to help aid needle track identification. Rats were returned to their cages for recovery.
[…] A 1 cm diameter margin of skin (full-thickness) around the injection site was excised. Skin was placed on a small card and stored in 10% formalin solution.

[4] = test system: female Wistar rats; conditions: rat, in vivo; remark: listed apart in the source
Experimental: MATERIALS AND METHODS: Antibody titers were evaluated using an ELISA assay. 100 μL of 1 μg/mL of rat interferon beta (Cell Sciences Inc. (Canton, Mass.)) in coating buffer was added to the wells of a 96 well plate. The plate was incubated at 4° C. overnight. Well contents were removed and the wells were blocked with 5% skim milk in PBST for 2 hours at 37° C. Wells were washed and 100 μL of serum samples were added to the first row of wells. Samples were serially diluted across the plate. The plate was incubated for 1 hour at 37° C. and washed. 100 μL of 1:4000 diluted, anti-rat HRP-conjugated antibody was added to each well and the plate was incubated for 30-60 minutes at 37° C. 100 μL of TMB color developer was added to each well. 200 μL of hydrochloric acid reaction stopper was added to each well. The plate was read at 450 nm. The antibody titer is the dilution giving 3 times absorbance of blank serum.
STUDY DESIGN: A chronic dosing regimen was performed in female Wistar rats using recombinant rat IFN-β (Cell Sciences Inc. (Canton, Mass.)). An injection route comparison was performed evaluating the immunogenicity of IFN-β upon injection intradermally or intramuscularly. IFN-β was injected intradermally using BD's 34 Ga, 1 mm needle and injected intramuscularly using BD 30 Ga×0.5″ to the hamstring muscle. […] Blood samples were collected once a week.

[5] = test system: female Wistar rats; assay: Visual observation of injection site irritation; type: in vivo, rat; conditions: ID administration, 3 times/wk for 24 weeks
Text: as §1
FIGS. 16A-B show injection site photos of IFN-β to female Wistar rats. Panel A is an intramuscular injection. The back of a rat's leg is shown. The injection was made into the hamstring muscle. Panel B is an intradermal injection on the rat's back. The “bleb” is circled. No irritation is evident in either photo. These photos were taken immediately post-injection.

[6] = ID injection, individual animals, marked grade

B1: IFN-β: recombinant rat IFN-β (Cell Sciences Inc., Canton, Mass.) (protein, UniProt P70499 22-184, looked up)
Interferon beta: IDYKQLQFRQSTSIRTCQKLLRQLNGRLNLSYRTDFKIPMEVMHPSQMEKSYTAFAIQVMLQNVFLVFRSNFSSTGWNETIVESLLDELHQQTELLEIILKEKQEERLTWVTSTTTLGLKSYYWRVQRYLKDKKYNSYAWMVVRAEVFRNFSIILRLNRNFQN
mean IFN-β specific NAbs titers, IM vs ID [1]: not significantly different
IFN-β specific IgG1 antibody, ID vs IM ([2]; week 2): only one animal showed any detectable IgG1 antibody; also recorded: higher
IFN-β specific IgG2b antibody ([2]; week 2, IM or ID): no IgG2b was detectable
mean IFN-β specific IgG2b concentration, ID vs IM ([2]; week 24): not significantly different; also recorded: comparable
cellular reaction, in general ([3]; 2 weeks): minimal
infiltration of injection sites with lymphocytes and neutrophils ([3]; 2 weeks, intradermal sites): minimally infiltrated
inflammatory cell infiltrates of injection sites, compared with intradermal sites ([3]; 2 weeks, intramuscular sites): more prominent
cellular reaction (inflammation) ([3]; 24 weeks, ID injection): minimal to moderate
Irritation Index ([3]; ID injection, individual animals 811-820, 24 hours post-injection): 3 and 2
Dermis, leukocyte infiltration (per 40× field) [3, 6]: Moderate - 51-100 (Moderate - 51-100)
Edema grade [3, 6]: Absent
Epidermis reaction grade [3, 6]: Normal, intact
Vascular Congestion grade [3, 6]: Absent
overall irritation index designation / histopathological classification of irritation ([3]; ID sites): minimal
animals with increase in titer from week 12 [4]: one
animals with marked increase in titer from week 12 [4]: Three
antibody response, ID vs IM [4]: slightly stronger
antibody response, IM vs ID [4]: slightly higher
antibody titers by ELISA, IM vs ID [4]: not significantly different
mean antibody response, IM vs ID [4]: higher mean antibody response
mean antibody titers by ELISA, IM vs ID (two sample t-test) [4]: not significantly different
acute or chronic injection site irritation (external, visual) [5]: No external acute or chronic injection site irritation

Source: patent publication US20050196380A1, “Method for delivering therapeutic proteins to the intradermal compartment” (priority 2004, published 2005)
